In a protein production outcome set (Wang et al. 2014):

Test: label from the status in PepcDB records

Sequence | protein production
MHLNTLAGRSYNDLMQYPVFPWILADYDSEEVDLTNPKTFRNLAKPMGAQTDERLAQYKKRYKDWEDPNGETPAYHYGTHYSSAMIVASYLVRMEPFTQIFLRLQGGHFDLADRMFHSVREAWYSASKHNMADVKELIPEFFYLPEFLFNSNNFDLGCKQNGTKLGDVILPPWAKGDPREFIRVHREALECDYVSAHLHEWIDLIFGYKQQGPAAVEAVNVFHHLFYEGQVDIYNINDPLKETATIGFINNFGQIPKQLFKKPHPPKRVRSRLNGDNAGISVLPGSTSDKIFFHHLDNLRPSLTPVKELKEPVGQIVCTDKGILAVEQNKVLIPPTWNKTFAWGYADLSCRLGTYESDKAMTVYECLSEWGQILCAICPNPKLVITGGTSTVVCVWEMGTSKEKAKTVTLKQALLGHTDTVTCATASLAYHIIVSGSRDRTCIIWDLNKLSFLTQLRGHRAPVSALCINELTGDIVSCAGTYIHVWSINGNPIVSVNTFTGRSQQIICCCMSEMNEWDTQNVIVTGHSDGVVRFWRMEFLQVPETPAPEPAEVLEMQGPLSHPHPNPIEVRNYSRLKPGYRWERQLVFRSKPTMHTAFDRKDNAHPAEVTALGISKDHSRILVGDSRGRVFSWSVSDQPGRSAADHWVKDEGGDSCSGCSVRFSLTERRHHCRNCGQLFCQKCSRFQSEIKRLKISSPVRVCQNCYYNLQHERGSEDGPRNC | failed
MHMKTVRQERLKSIVRILERSKEPVSGAQLAEELSVSRQVIVQDIAYLRSLGYNIVATPRGYVLAGGKSGVSRLVAVKHAPEEIKEELLCVVRNGGRIVDVIVEHPVYGEIRGIIDVSSEEEVLKFVNLMEMAKTEPLLTLSGGVHLHTIEAPDEETMERIMRELKKKGFLIEEG | not failed
MHNAGKQVAAPLETPMPAATAALLAERADHPLYVASVEKGMRVLEAFDAARDSLSLTDIVQLTGMGKSAAQRFTHTWEALGYLAKDPQSRRYRLGPKVVELSYYFLRSDHLVSLAAPHLVALREHCGLAVNMSVLSGDDMIYLLRLPSRQLTLVEMLPGRRMPAWSNSAGRMLLSQRDDASVRDLLARAAPQLYTPRTQTDPQALLAEIRQAREDGYAITQDQVLLNQMGVATLLRDERRQPLAAISVTAAADEYPRARLVAEIVPQMLKAAYAICGA | failed
MHNKKWDLRIICAHAFTILIWGSAFPAIRMGLASYTPEHLTLLRLLIASFILLLFSFIYKLRIPDLKDIPAIFIFGALGFTFYHIALNYGEKTVNAGSASLIVSVTPIVTAILASIFLNEKMKLNGWIGGGISFIGIALISFSQGDAIQLNSGGFFILLAAISESLYFVFQTSYLKKYGFLPFTIYTILSSTVCMLIFFPGMYTEILAAPLEVNMSVIYLGLFPTVLPYIALAYIISHSGAAEATSSLYLTPVTACFVAWIWLGEVPTFVSIIGGGITILGILIVHIPVLRKEKHRNLANNQSV | failed
MHPCHRPSFAFLRHPLSIVVCLALLAGCSTSPLQFPEPLLAKSEKAKATEGVALVSDDGKKAPASLAVPKTEFSGTPTSPRSIVGGVVDRMDKAILDDKKADISLNVEDVQLAAFINEVFGNILGLPFEIESALKEKTDRVTVRLEQPQTAQMVYEVARQVLVNYGVEILHQGDIYRFQIKQVGLSPDEPPILISGEARPSVPIAYRPVFQFVALHSVDPKDVIPWLNSAYEKSGLSVMADGARSGLMLKGMSSIVNQATEAVRLLDQPFMRGRHSLRIDPAFVSAADMASQLKTVIAAQGYSVGIGEAVGSIMLVPLESSNGLIVFANDGQLLDLVREWAQQVDRAPMAVAAGIGEEKEGLFFYEARNTRVTELAKSLRALVSGFAGEGAYGITSGLQSSASKRSGGGRRAGDDGAAPAVAPLLQAAGAAALVGGDGANGLLGGLAAGISGSGTIVEDENRNAILFRGAARTWQQMQGLLREMDKPARQVLIEVTVASVSLSDTQELGVEWEMLNGSFNSATSTGSKGSAGKGGFNYVINTAGGNTAAIQAMADNQRVRVLATPRILVKSGEQANINVGRDIPIPTAQVNDDSTTAGSTNLRNEIAYRSTGTILNVAPVVYSDSRVDLTVSQELSDSGGSSGGGGKASGGGISAPEISRTSLETSLTLKSGGSVLMGGLIRDNITDSNAGVPLLKDIPGIGFLFGRQKAVKTREEVIMLIQPYVLESDADAREVTEKLHAMLSKTLACSDRPGACRME | failed
MHPFRWQRSRQRSSALSFLKKAFYQIPVIGWLVKDAAHGSPEAPYFFLFNAVVVGAALIYTFGYPLVITVAVAGAFAGIAGLVVLTAGDAFDKRAKQPATDVRRAKTATVRPLKKAA | failed
MHPPIVMSTLPPSVAPPIGTAPQRHSLVSLRRLSWLRWALLAGQALLLVSCESLAGIALPYKPLLFLFAVQTVFNVFTVARLHWHTRHGTAPSDAELMVQMMVDLTALSAILFYTGGATNPFVSFYLPGLAIASAILPWRLVVTLAAYALACYSMLLLEYIPLDLHNPDNAVNYHLAGMWLNFVASAVMIAFFVARLSNALRQRDAQLNEARELLLREARVEALNDQAAAVAHEIGTPLATLAVIAGELRADAENTNRSDTPVADYQADLRTMEQQLELCRSILARLRADHETLAPQRIDAWLAPFVERWQLRHPQASLQAGAAPDAAAQAVDTARISQILTIALDNAARSQQAAGHDHRQGPPLRLDIAREADALVYRVTDHGHGLPPGLRARLGESPVASAHGGQGIGLYLAQSAARQLGGQISWHDNPAGGTVLELRLPLTAASERAIAAQPDFQP | failed
MHPVKALKQGVKNGTMPIIARFYGIIIKMFFNEHLPPHFHALYGEYNAIFNINTLEMIEGDMPLRARKLVVEWAENHQKELEIMWETKEFKQLPGLELEHHHHHH | not failed
MHRHVVTKVLPYTPDQLFELVGDVDAYPKFVPWITGMRTWNGRVDGAVSTVDAEAQVGFSFLREKFATRVRRDKDARSIDVSLLYGPFKRLNNGWRFMPEGDATRVEFVIEFAFKSALLDAMLAANVDRAAGKLIACFEARAQQLHGALEHHHHHH | not failed
MHSIRNFFCGQWSSSVRLDEKTVIITGANTGIGKETARDLARRGARVVMACRDLEKAEAARRELMDNSGNQNIVVKKLDLADTKSIKAFAELINKEEKQVNILINNAGIMMCPYSKTADGFEMQFGVNHLGHFLLIYLLLDLLKKSTPSRIVNVASVAHTWSGIHLEDINSEKVYSPRRAYGQSKLANILCTRSLAKRLQGSGVNVYSLHPGVVQSELFRNLSKPAQIAFKVFSPFTKTTSQGAQTTIYCAIEPELDRESGGYYSDCGPAQCSREASDDEMAQKLWELSCQMLGIIWD | failed
MHSNSWMSCKAVDNAEKEALLLQLQADADGPRRRCEIRERSLGQAVMLALLSLLLVLLGGWLASLPSAWQLRSAQLWFWLPGALMLGAGLVGLAAAEALRRRHGQQVLALTPDTLQFANAPDPTPWVCFDGFELEQRYLSLGLVFSVIAGSRAPALAPACFKSLAAPHAWPVAAGMRVRLWLFNPMLDGQRLDFQALTDLLYAYLNAAQARSTLGQLFPEVQRVGATQ | failed
MHSQTLRLASYNIQKCVGLDLRRQPRRILQVLDAMGARIAVLQEADKRLPPRPAALPHFVLEEAGWQVVDLGGAGSLGWHGNAVIWKGAGITQLASAHHDLPGFEPRGAVRVEFDTPIGPLRVLGLHLGLLPASRRDQIVHLAHDLERLPPMPTVWAGDFNEWSRQPVLDHLAPMLRFLPARPSFPAPRPLGALDRIAHSPELSAVAHGVFAERPAPIASDHLPVWADLTRPV | failed
MHVFGLPAIGALAGTQAYWVSLVDVYAAQARIAATGMYPSGRVKRAFPGCCRGYWGDAGGSVRAGWISAAWPYGRFDRSGRPVGGAQPQVIWCEVGCGMGEHELMIFGNKDLPQRTPERPLVTFAVFAYNQESFIRDAIEGAFAQTYEPLEIILSDDCSDDETFLIMQQMAAAYRGPHKVVVRKNHENLGVLGHVLTVAKMAAGKYMVVAAGDDISFPDRTERQVSFLERESDRVVVVSSHDVIFDENCDLPNQKQDSNLRLRKQWYKNNNSWFHGGTACYRLGVLRELPLPTSRLLYEDMALINIFKAMGYSSGFMEIPTIRRRFHQLNLGMQRPERNPWDEERRILRRIEHAADVMDYAADVIEGEGGKAAKLRVQAAIMRKYAKWPDLNFVDRFLLFFESLKAGYMRKASAKVLLGKDVVLDIRSLWC | failed
MHVQEWLDTVPAAAVYAVVGLVIGLESLGIPLPGEIILVSAALLSSQHGGIDPLVLGACASAGAVIGDSIGYAIGRKGGRPLLAWLGGKFPRHFGEGHVATAERSFQKWGMWAVFFGRFVALLRIFAGPLAGVLRMPYWKFLIANVLGGIVWAGGTTAVIYYVGVVAEDWLKRFSWLGLVVAVLIGIASMLIVKRRAGKAQQTPEPVAAGE | failed
MHVVQGAKTMWNKIQVVSHGRGGLRSQCCETTMIGHPTPTPAQDSETQPSPQEHIPEKKPLPKEIGGRDGPEPTRYGDWEKNGRCIDFLEHHHHHH | failed
MHYTETGSPRLAILIDADNTFRFINVIDELLEEISKYGDVSIRRIYGDWTETKMQRWKEILPKYAIQPIQQYANTKGKNSTDSALIIDAMDLLYTAPLDGFCIVSSDSDFTRLATRLRESGKQVYGFGEQKTPDSLIAACNKFIYIEILSKEKLSDPPEPTPISTSETSASVESKPPAAPSTPLSPAALAPGIRKSSRELAMDTRLISLIRSAISALSDDDGYAHIGEIKKYMIKNFPAFDSRNYGYSKFSELIKATGLFDIDKDKQRIKDKRKK | failed
MIAHLLLSLALLLTAAKLGGVLAVRLGQPAVLGELVAGIALGALPALGLHGAAGLAHDPVLEALAELGVILLLFEVGLSTRLAELVKVGASAFLVACIGVVAPMALGYGVGAWLLPGASPLAHLFLGAALSATSVGITARVLRDMGRIGSPAGQIILGAAVIDDVLGLLVLAVMVGLAGGGGDGAGTWTVLALVGAKAVGFLGAALVAGRWAAPRLFAVAARLRAQGVLFTLALAVCLALSWAASAVELAPIVGAFAAGLVLEGVPFAELSGGEERLEERLTPLAAVLVPLFFVRMGLAVDLGALGTGSLALAGALSVAAIVGKQACALAVVTPGVDRLAVGLGMIPRGEVGLIFANIGLSLTAGGRPLLGPGAFAAIVAMVLVTTLVTPPLLRWRMGSAPAAAAVRPGPGVRAA | failed
MIAHPVVGIVGIAGAYGRWLAQFLRTRMGLEVIGVDPALPDGLDDATLVARADVLIFSAPIRHTAALIERYAALAGARAAEQLWLDVTSIKQAPVAAMLASQAEVVGLHPMTAPPKSPTLKGRVMVVCRARVQRWSGWVDALCSALQAECVYATPEHHDRVMALVQAMVHATHLAQAGTLRDYAPLLGELRTLMPYRSASFELDTAVIARILSLNPSIYEDIQFGNPYVAEMLDRLLAQLQELRGLVVQGDDAARLRFRQAFLDANAQALQGDSLAAGNYTYERVGYLLADLTEPLTLSVYLPEDQPGSLRVLLHVFEQHGVNLSSIHSSRTPGGELHFRMGFEPESDRAALGRAAAQIDADRIGRVLERVDRER | failed
MICLTSKMMAFLPYFLELKGKRVNIQALINDRVSQAIEAAGAPAGTPALVRQSAKAQFGDYQANGIMGAAKQLGTNPREFAQKVLDVLNLEGIASKTEIAGPGFINIFLSEEFLAAQAEAALADAR | failed
MICTEALQRISFSSDLGQSDKAPPPVIEPSGLIRRDETLLDSSNSDFEFHISNSFDPGDSSPADEIFADGMILPFHVTAASTVPKRLYKYELPPITSSLSPSPLSPQPLPTKHSEKETNGRASGANSDSEAEKSSKSFWSFKRSSSLNCDIKKSLICSFPRLTRSNSTGSVTNSKRAMLRDVNNHRPSSRSSCCNAYQFRPQKHTGKKGEGGGSFSVIPVLNGPSTFGLGSILRHSNSKDKTKTKKKKNKK | failed
MIDLRSDTVTKPTEEMRKAMAQAEVGDDVYGEDPTINELERLAAETFGKEAALFVPSGTMGNQVSIMAHTQRGDEVILEADSHIFWYEVGAMAVLSGVMPHPVPGKNGAMDPDDVRKAIRPRNIHFPRTSLIAIENTHNRSGGRVVPLENIKEICTIAKEHGINVHIDGARIFNASIASGVPVKEYAGYADSVMFCLSKGLCAPVGSVVVGDRDFIERARKARKMLGGGMRQAGVLAAAGIIALTKMVDRLKEDHENARFLALKLKEIGYSVNPEDVKTNMVILRTDNLKVNAHGFIEALRNSGVLANAVSDTEIRLVTHKDVSRNDIEEALNIFEKLFRKFS | not failed
